Assay: yeast display, Sf9 membrane polyspecificity reagent, FACS + sequencing; frameworks hold sequencing errors
In short: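 Nanobodies came from a synthetic yeast display library in Saccharomyces cerevisiae BJ5465, induced with galactose for 36–48 hours and stained for 1 hour at 4 °C with 10% biotinylated, detergent-solubilized Sf9 membrane reagent. Cells were enriched on streptavidin microbeads and then FACS-sorted, with low and high (top ~1%) gates set on anti-HA fluorescence for expression and streptavidin fluorescence for reagent binding. Each polyreactivity label reflects the gate a clone came from. Genes were amplified by colony PCR, sequenced by MiSeq 2 × 250 and filtered by CDR length.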

Row | Sequence | polyreactivity (PSR sort gate)
1 | QVQLVESGGGLVQAGGRLRLSCAASGSIFFGNVIGWYRQAPGKEREWVAAINTDGRTYYADSVKGRFTISRDNAKNTVYLQMNSLKPEDTAVYYCAKAVWWSLPAQKSYLYYYWGQGTQVTVSS | high polyreactivity
2 | QVQLVESGGGLVQAGGTLRLICAASGLTFGRYAMGWYRQAPGKERELVASISQRGGSTYYADSVKGRFTISRDNAKNTVYLQMNSLKPEDTAVYYCAARRYYRGEYDYWGQGTQVTVSS | low polyreactivity
3 | QVQLVESGGGLVQAGGSLRLSCAASGLILSGYTMGWYRPAPGKERELVAAISRSGGRTYYADSVKGRFTISRDNAKNTVYLQMNSLKPEDTAVYYCAAAKRTWRSDYWGQGTQVTVSS | high polyreactivity
4 | QVQLVESGGGLVQAGGSLRLSCAASGSTFSGNVMGWYRQAPGKERALVAAIRRSSGSTYYADSVKGRFTISRDNAKNTVYLQMNSLKPEDTAVYYCATDVTKIRQGDYYYWGQGTQVTVSS | high polyreactivity
5 | QVQLVESGGGLVQAGGSLRLSCAASGSIFYTYAMGWYRQAPGKERELVAAISRSGGSTYYADSVKGRFTISRDNAKNTVYVQMNSLKPEETAVYYCAAVSYRGRGYWGQGTQVTVSS | high polyreactivity
6 | QVQLVESGGGLVQAGGSLRLSCAASGSIFALYAMGWSRQEPGKEREFVAAISYRGGRTYYADSVKGRFTISRDNAKNTVYLQMNSLKPEDTAVYYCDTDFPGKFDYWGQGTQVTVSS | low polyreactivity
7 | QVQLVESGGGLVQAGGSLRLSCAASGFTFVSYAMGWYRQAPGKEREFVATISKRGGSTYYADSVKGRFTNSRDNAKNTVYLQMNSLKPEDTAVYYCAAARNVYRGRVYWGRYDYWGQGTQVTVSS | high polyreactivity
8 | QVQLEESGGGLVQAGGSLRLSCAASGRIFYWYAMGWYRQAPGKERELVATISSAGTTYYADSVKGRFTISRDNAKNTVYLQMNSLKPEDTAVYYCAVPRVGLHGIGSDYWGQGTQVTVSS | high polyreactivity
9 | QVQLVESGGGIVQAGGSLRLSFDASGFLFYSYAMGCYRQAPGKEREFVAAISWSGARTYYPDSVKGRFTISRDNAKNTVYLQMNSLKPEDTAVYYCIAVAFYPRSSRSWRLDYWGQGTQVTVSS | high polyreactivity
10 | QVQLVESGGGLVQAGGSLRLSCAASGSIFIYYAMGWYRQAPGKERELVAAITWRSGSTYYADSVKGRFTISRDNAKNTVYFQRNSLKPEDNAVNYCAAYAWTATDSARPYGYDYWGQGTQVTVSS | low polyreactivity
11 | QVQRVESGGGLVQAGGSLRLSCAASGRIFLIYAMGWYRPAPGKERELVAGISSGGSTYYADSVKGRFTISRDNAKNTVYLQMNSLKPEDTAVYYCAARRYYYRYLFGRYAYGYWGQGTQVNVSS | low polyreactivity
12 | QVQLVESGGGLVQAGGSLRLSCAASGFIFGPYTMGWYRQAPGKERELVAAINNSGSTNYADSVKGRFTISRDNAKNTVYLQMNCLKPEDTAVYFCAAEPIIFVRYDYWGQGTQVTVSS | low polyreactivity
13 | QVQLVESGGGLVQAGGSLRLRCAASGSTYVYAIGWYRQAPGKDRELVASISWSDSSTYYADSVKGRFTISRDNAKNTVYLQMNSLKPEETAFYYCNADQGTRDSDYWGQGTQVTVSS | low polyreactivity
14 | QVQLVESGGGLVQAGGSLRLSCAASGSIYDSYAMGWYRQAPGKERELVATINTSGGSTYYADSVKGRFTIHDNAKNTVYLQMNSLKPEDTAVYYCNAGRWVYWQNNFGDYGYWGQGTQVTVSS | low polyreactivity
15 | QVHLVESGGGLVQAGGSLRLSCAASGSTFTYNTMGWYRQAPGKERELVAAITWSGGRTYYADSVKGRFTISRDNAKNTVYLQMNSLKPEDTAVYYCNADSSGVTSAYDYWGQGTQVTVSS | high polyreactivity
16 | QVQLVESGGGLVQAGGSLRLSCAASGSIFRFYTMGWYRQAPGKQRELVAAISASGGNTYYADSVKGRFTISRDNAKNTVYLQMNSLKPEDTAVYYCARVKFTKYDYWGQGTQVTVSS | high polyreactivity
17 | QVQLVESGGGLVQAGGSLRLSCAASGRIFAFYAMGWYRQAPGKERELVAAITSGGSTKYADSVNGRFSISRDNAKNTVYLLMNSMKPEDTAVYYCAARYRWQFRSQYDYWGQGTQVTVSS | high polyreactivity
18 | QVQLVESGGGLVQAGGSLRLSCAASGFIFVGNDMGWYRQAPGKERELVAAISSGGTTNYADSVKGRFTISRDNAKNTVYLQMNSLIPEDTAVYYCAADYDYRQGYDSVHLDYWGQGTQVTVSS | low polyreactivity
19 | QVQLVESGGGLVQAGGSLRLSCAASGSIFKRNAMVSYRQAPGKERELVASISSGGSTHYADSVKGRFTISRDNAKNTVYLQMNSLTPEDTAVYYCAATSIRWSVCSFRRDYWGQGTQVTVSS | low polyreactivity
20 | QVQLVESGGGLVQAGGSLRLSCAASGSIFNWYAMGWYRRAPGKERELVAAISQSGTRTFYADSVKGRFTISRDNAKNTVYLQMNSLKPEDTAVYYCNTVKAGYDGYDRDYWGQGTQVTVSS | high polyreactivity
21 | QVQLVESGGGLVQAGGSLRLSCAASGRIWSNAMGWYRQAPGKERELVAVISSRGGSTYYADSVKGRFTISRDNAKNTVYFQMNSLKPEDTAVYYCAARQRAKYNYWGQGTQVTVSS | high polyreactivity
22 | QVQLVESGGGLVQAGGSLRLSCAASGRTFVSNAMGWYRQAPGKERELVAGINWTDDSTYYADSVKGRFTISRDNAKNTVYLQINSLKPEDTAVYYCAADSLEFAWPRFDYWGQGTQVTVSS | low polyreactivity

Row | Sequence | polyreactivity (PSR sort gate)
23 | QVQLVESGGGLVQAGGSLRISCAASGSTFDRNAMGWYRQPPGKERELVAAISSSGGRTYYADSVKGRFTISRDNAKNTVYLQMNSLKPEDTPVYYCAAAFSLGMYWGKGTQVTVSS | high polyreactivity
24 | QVQLVESGGRLVQAGGSLRLSCAASGSTFGSYTMGWYRQAPGKERELVAAINWSGGNTYYADSVKGRFTISRDYAKNTVYLQMNSLKPEDTAVYFCAAAYYIYGFEGDYWGHGTQVTVSS | low polyreactivity
25 | QVQLVESGGGLVQAGGILRLSCAASGSIFQRYVMGWYRQAPGKAREFVAGITRSGGSTYYADSVKGRFTISRDNAKNTVYLPMNSQKPEDTAVYNCAAALVRGTYKYDYWGQGTQVTFSS | high polyreactivity
26 | QVQLVESVGGLVQAGGSLRLSCAASGLIFIISTMGWDRQAPGKERELVAAITRRGGITYYADSVKGRFTISRDNAKNTVYLQMNSLKPEDTAVYYCAVVRPYNIWYDYWGQGTQVTVSS | low polyreactivity
27 | QVQLVESGGGLVQAGGSLRLSCAASGGTLWGYGMGWYRQAPGKEREFVAAITWSGGNTNYADSVKGRFTISRDNAMNTVYLLMNSLKPEDTAVYYCNARVYYKRKYDYWGQGTQVTVSS | high polyreactivity
28 | QVQRVESGGGLVQAGGRLRLSCAASGRTFDNYAMGWYIQAPGKERELVSAISGGGGTNYADSVKGRFTISPDNAKNTVYLQMNSLKPEDTAVYYCAADTNGYEFDYWGQGTQVTVSS | low polyreactivity
29 | QVQLVESGGGLVQAGGSLRLSCAASGSIFERYAMGWYRQAPGKERELVAAITWTGGSTYYADSVKGRFTISRDNAQNTVYLQMNSLKPEDTAVYYCAADYLYPLWGWYDYWGQGTQVTVSS | low polyreactivity
30 | QVQLVDSGGGLVQAGGSLRLSCAASGITFRYYAMGWYRQAPGKERELVAAITRGGRTNYADSVKGRFTISRDNAKNTVYLQKNSLKPEETAVYYCATGRDSNFGNSYYYWGQGTQVTVSS | high polyreactivity
31 | QFQLVESGGGLVQAGGSLRLSCAASGRTFRYYTMGWYRQAPGKEREFVAVITVNGGSTYYADSVKGRFTISRDNAKNTVYLQMNSLKPEDTAVYYCAKSYGSRHRYWPLYYWGQGTQVTVSS | high polyreactivity
32 | QVQLVESGGGLVQAGCSLRLSCAASGRIFNDYAMGWYRQAPGKERELVAGISRRGGSTSYADSVKGRFTISRDNAKNTDYLQMNSQKAEDTAVYYCNADYWYDYYSTEYDYWGQGTQVTVSS | low polyreactivity
33 | QVQLVESGGGLVQAGGSLRLSCAASGNTLVKNAMGWYRQAPGKERELVAANSSSGGRTYYADSVKGRFTISRDNAKTTVYLQLNSLKPEDTAVYYCAARYPSGYYYWGQGTQVTVSS | high polyreactivity
34 | QVQLVESGGCLDQAGGRLRLSCAASGSTFYDYVMGWYRQAPGKERELVAVISSSGSTNYADSVKGRVTISRDNAKNTVYLQMNSLKPEDTAVYYCAVDPFRRWWETIFDEYDYWGQGTQVTVSS | low polyreactivity
35 | QVQLVESGGGLVQAGGSLRLSCAASGRTFYGYAMGWYRQAPGKERELVAAITYSGGRTYYADSVKGRFTISRDNAKNTVYLQMNSLKPEDTAVYYCNTGYWYVSLGSYDYYGEYDYWGQGTQVTVSS | high polyreactivity
36 | QVQLVESGGGLVQAGGSLRLSCAASGSIFITYAMGWYRQAPGKDRELVATITSRSGGTYYADSVKGRFTISRDNAKNTVYLQMNSLKQEDTAVYYCNAVYTYPVFHGMGYWGQGTQVTVSS | high polyreactivity
37 | QVQLVESRGGLVQAGGSLRLTCAASGSTFAPNTMGWYRQAPGQERELVARITSSDGSTTYADSVKGRFTISRDNAKTTVYLQMNSLKPEHTAVYYCAADYGRRWGYDYWGQGTQVTVSS | low polyreactivity
38 | QVQLVESGGGLVQAGGSLRLSCAASGGTFGRYAMGWYRQAPGKERELVAAITYGGGSTYYADSVKGRFTISRDNAKNTVYLQMNSLKPEDTAVYYCNKYASLRYWGQGTQVTVSS | high polyreactivity
39 | QVQLVESGGGLVQAGGSLRLSCAASGRIFGRYTMGWYRQAPGKERELVAAISARGGSTYYADSVKGRFTISRDNAKNTVYLQMNSLKPEDTAVYYCDAEYVVWYLDRFNYWGQGTQVTVSS | high polyreactivity
40 | QVKLVESGGGLVQAGGSLRLSCAASGSIISGYAMGWYRQAPGKERELVAAISSSGGRTYYADSVKGRFTISRDNAKNTVYLQMYSLKPEDTAVYYCATVWSIVRGSYYNRYDYWGQGTQVTVSS | high polyreactivity
41 | QVQLVESGGGLVQAGGSLRLSCAASGRIFYNNAMGWYRQAPGKERELVAAITYSGGSTYYADSVKGRFTISRDNAKNTVYLQMNSLKPEDTAVYYCAAEYYGPYSEGGESYDYWGQGTQVTVSS | low polyreactivity
42 | QVQLVESGGGLVQAGGSLRLSCAASGFIFWGNAMGWYRQAPGKERELVAAINYSGGRTYYADSVKGRFTISRDNAKNTVYLQMNSLKAEATAVNYCAAKYRYHVSGYDYWGQATQVTVSS | high polyreactivity
43 | QVQLVESGGGLVQAGGSLRLSCAASGRIILVYAMGWYRQAPGKEREVVAAISSGGSTYYADSVKGRFTISRDTAKNPVYLQMNSLKPDDTAVYYSAARTAVGPIRSYWYDYWGQGTQVTVSS | low polyreactivity

— the nanobody polyreactivity screen of Harvey et al. (2022)
